Reference: the supplement of paper PMC11316812
± gives the standard deviation of the averaged measurements.

Columns and labels:
MCF7 = assay: percentage of EdU-negative (G0-arrested) nuclei per well, 72 h; higher = more G0 arrest; conditions: reference: sequence is the full UniProt precursor, the tested protein was the secreted form or ectodomain
hTERT-HMEC = assay: as above; conditions: reference: sequence is the full UniProt precursor, the tested protein was the secreted form or ectodomain
[1] = protein concentration 0.03125 µM
[2] = protein concentration 0.3125 µM
[3] = protein concentration 0.0225 µM
[4] = protein concentration 0.00714286 µM
[5] = protein concentration 0.0714286 µM
[6] = protein concentration 0.01125 µM
[7] = protein concentration 0.1125 µM
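Further: secreted proteins added to cultured cells, EdU pulse at the end, nuclei found by Hoechst imaging, EdU status from nuclear versus surrounding ring intensity ratio, PBS as neutral control.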

MGRGWGFLFGLLGAVWLLSSGHGEEQPPETAAQRCFCQVSGYLDDCTCDVETIDRFNNYRLFPRLQKLLESDYFRYYKVNLKRPCPFWNDISQCGRRDCAVKPCQSDEVPDGIKSASYKYSEEANNLIEECEQAERLGAVDESLSEETQKAVLQWTKHDDSSDNFCEADDIQSPEAEYVDLLLNPERYTGYKGPDAWKIWNVIYEENCFKPQTIKRPLNPLASGQGTSEENTFYSWLEGLCVEKRAFYRLISGLHASINVHLSARYLLQETWLEKKWGHNITEFQQRFDGILTEGEGPRRLKNLYFLYLIELRALSKVLPFFERPDFQLFTGNKIQDEENKMLLLEILHEIKSFPLHFDENSFFAGDKKEAHKLKEDFRLHFRNISRIMDCVGCFKCRLWGKLQTQGLGTALKILFSEKLIANMPESGPSYEFHLTRQEIVSLFNAFGRISTSVKELENFRNLLQNIH [Q96HE7]
percentage of EdU-negative (MCF7; [1]): 26.32 ± 0.034%
percentage of EdU-negative (MCF7; [2]): 25.7 ± 0.52%
percentage of EdU-negative (hTERT-HMEC; [1]): 6.24 ± 0.39%
percentage of EdU-negative (hTERT-HMEC; [2]): 6.47 ± 0.033%

MGRPRPRAAKTWMFLLLLGGAWAGHSRAQEDKVLGGHECQPHSQPWQAALFQGQQLLCGGVLVGGNWVLTAAHCKKPKYTVRLGDHSLQNKDGPEQEIPVVQSIPHPCYNSSDVEDHNHDLMLLQLRDQASLGSKVKPISLADHCTQPGQKCTVSGWGTVTSPRENFPDTLNCAEVKIFPQKKCEDAYPGQITDGMVCAGSSKGADTCQGDSGGPLVCDGALQGITSWGSDPCGRSDKPGVYTNICRYLDWIKKIIGSKG
percentage of EdU-negative (MCF7; [3]): 26.4 ± 2.5%
percentage of EdU-negative (MCF7; protein concentration 0.225 µM): 24.6 ± 0.69%
percentage of EdU-negative (hTERT-HMEC; [3]): 4.99 ± 0.28%
percentage of EdU-negative (hTERT-HMEC; protein concentration 0.225 µM): 5.28 ± 0.5%

MGRRDAQLLAALLVLGLCALAGSEKPSPCQCSRLSPHNRTNCGFPGITSDQCFDNGCCFDSSVTGVPWCFHPLPKQESDQCVMEVSDRRNCGYPGISPEECASRKCCFSNFIFEVPWCFFPKSVEDCHY
percentage of EdU-negative (MCF7; [3]): 23 ± 1.6%
percentage of EdU-negative (MCF7; protein concentration 0.225 µM): 24.8 ± 1.3%
percentage of EdU-negative (hTERT-HMEC; [3]): 5.31 ± 1.5%
percentage of EdU-negative (hTERT-HMEC; protein concentration 0.225 µM): 5.92 ± 0.79%

MGSGAGELGRAERLPVLFLFLLSLFCPALCEQIRYRIPEEMPKGSVVGNLATDLGFSVQELPTRKLRVSSEKPYFTVSAESGELLVSSRLDREEICGKKPACALEFEAVAENPLNFYHVNVEIEDINDHTPKFTQNSFELQISESAQPGTRFILEVAEDADIGLNSLQKYKLSLNPSFSLIIKEKQDGSKYPELALEKTLDREQQSYHRLVLTALDGGHPPLSGTTELRIQVTDANDNPPVFNRDVYRVSLRENVPPGTTVLQVSATDQDEGINSEITYSFYRTGQIFSLNSKSGEITTQKKLDFEETKEYSMVVEGRDGGGLVAQCTVEINIQDENDNSPEVTFHSLLEMILENAVPGTLIALIKIHDQDSGENGEVNCQLQGEVPFKIISSSKNSYKLVTDGTLDREQTPEYNVTITATDRGKPPLSSSISVILHIRDVNDNAPVFHQASYLVSVPENNPPGASIAQVCASDLDLGLNGQVSYSIMASDLEPLALASYVSMSAQSGVVFAQRAFDYEQLRTFELTLQARDQGSPALSANVSLRVLVGDRNDNAPRVLYPALGPDGSALFDMVPRAAEPGYLVTKVVAVDADSGHNAWLSYHVLQASEPGLFSLGLRTGEVRTARALGDRDAARQRLLVAVRDGGQPPLSATATLHLVFADSLQEVLPDITDRPVPSDPQAELQFYLVVALALISVLFLLAVILAVALRLRRSSSPAAWSCFQPGLCVKSGPVVPPNYSQGTLPYSYNLCVAHTGKTEFNFLKCSEQLSSGQDILCGDSSGALFPLCNSSESTSHPELQAPPNTDWRFSQAQRPGTSGSQNGDDTGTWPNNQFDTEMLQAMILASASEAADGSSTLGGGAGTMGLSARYGPQFTLQHVPDYRQNVYIPGSNATLTNAAGKRDGKAPAGGNGNKKKSGKKEKK [Q9Y5G0]
percentage of EdU-negative (MCF7; [4]): 26.7 ± 4%
percentage of EdU-negative (MCF7; [5]): 34.45 ± 0.24%
percentage of EdU-negative (hTERT-HMEC; [4]): 5.16 ± 0.12%
percentage of EdU-negative (hTERT-HMEC; [5]): 11.4 ± 4.3%

MGSGPRGALSLLLLLLAPPSRPAAGCPAPCSCAGTLVDCGRRGLTWASLPTAFPVDTTELVLTGNNLTALPPGLLDALPALRTAHLGANPWRCDCRLVPLRAWLAGRPERAPYRDLRCVAPPALRGRLLPYLAEDELRAACAPGPLCWGALAAQLALLGLGLLHALLLVLLLCRLRRLRARARARAAARLSLTDPLVAERAGTDES
percentage of EdU-negative (MCF7; [3]): 23.5 ± 3%
percentage of EdU-negative (MCF7; protein concentration 0.225 µM): 27.189 ± 0.018%
percentage of EdU-negative (hTERT-HMEC; [3]): 5.41 ± 0.22%
percentage of EdU-negative (hTERT-HMEC; protein concentration 0.225 µM): 6.21 ± 0.79%

MGSGRRALSAVPAVLLVLTLPGLPVWAQNDTEPIVLEGKCLVVCDSNPATDSKGSSSSPLGISVRAANSKVAFSAVRSTNHEPSEMSNKTRIIYFDQILVNVGNFFTLESVFVAPRKGIYSFSFHVIKVYQSQTIQVNLMLNGKPVISAFAGDKDVTREAATNGVLLYLDKEDKVYLKLEKGNLVGGWQYSTFSGFLVFPL [Q9NTU7]
percentage of EdU-negative (MCF7; [3]): 23.4 ± 2%
percentage of EdU-negative (MCF7; protein concentration 0.225 µM): 25.2 ± 2.2%
percentage of EdU-negative (hTERT-HMEC; [3]): 5.12 ± 0.27%
percentage of EdU-negative (hTERT-HMEC; protein concentration 0.225 µM): 4.5 ± 0.36%

MGSPRSALSCLLLHLLVLCLQAQEGPGRGPALGRELASLFRAGREPQGVSQQHVREQSLVTDQLSRRLIRTYQLYSRTSGKHVQVLANKRINAMAEDGDPFAKLIVETDTFGSRVRVRGAETGLYICMNKKGKLIAKSNGKGKDCVFTEIVLENNYTALQNAKYEGWYMAFTRKGRPRKGSKTRQHQREVHFMKRLPRGHHTTEQSLRFEFLNYPPFTRSLRGSQRTWAPEPR
percentage of EdU-negative (MCF7; [6]): 25.1 ± 1.4%
percentage of EdU-negative (MCF7; [7]): 25.58 ± 0.037%
percentage of EdU-negative (hTERT-HMEC; [6]): 5.64 ± 0.65%
percentage of EdU-negative (hTERT-HMEC; [7]): 11 ± 1.7%
